Data on 7 molecules can be found in patent US20070243303, “Methods and Means for Regulating Gene Expression” (Friesland Brands B.V., published 2007).

A value given as a limit tells only on which side of the number the result lay.

Series [1] has as its target T1, CodY (native, in cell) (Lactococcus lactis subsp. cremoris …, UniProt A2RHP2 A2RHP2:1-262).
T1 sequence: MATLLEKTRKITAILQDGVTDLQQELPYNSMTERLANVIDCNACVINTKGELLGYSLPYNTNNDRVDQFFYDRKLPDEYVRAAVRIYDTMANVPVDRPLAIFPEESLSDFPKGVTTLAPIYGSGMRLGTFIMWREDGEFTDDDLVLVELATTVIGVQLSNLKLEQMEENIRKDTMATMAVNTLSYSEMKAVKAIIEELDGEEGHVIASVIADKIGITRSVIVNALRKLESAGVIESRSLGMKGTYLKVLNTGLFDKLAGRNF
The series can be described thus: cell_activity. Particulars: 8-fold for prtM::lacZ; less than 2-fold in codY mutant; scale: fold repression.

The target of series [2] is T2, CodY (H6-CodY) (Lactococcus lactis subsp. cremoris …, UniProt A2RHP2 A2RHP2:1-262).
T2 sequence: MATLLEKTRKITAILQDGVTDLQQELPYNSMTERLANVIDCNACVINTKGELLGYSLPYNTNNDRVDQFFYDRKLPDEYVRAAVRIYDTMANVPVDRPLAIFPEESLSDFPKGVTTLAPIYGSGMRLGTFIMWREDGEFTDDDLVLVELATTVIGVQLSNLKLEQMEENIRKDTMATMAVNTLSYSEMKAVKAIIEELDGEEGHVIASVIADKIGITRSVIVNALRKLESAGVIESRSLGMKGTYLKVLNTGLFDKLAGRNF
Description: EMSA; 20 or 200 ng H6-CodY. Particulars: tags: N-terminal His6 (pNH6CodY, nisin-induced in L. lactis NZ9000, Ni-NTA); chain copies: multimer, dimer or tetramer by cross-linking (stated); label: 32P 5'-end. How it is done: (§1) Gel retardation experiments were carried out essentially as described by Ebbole and Zalkin (Ebbole et al., 1989). Purified PCR products (2 μg) were end-labelled with polynucleotide kinase (Amersham Pharmacia Biotech) for 1 h at 37° C. using 30 μCi [γ-³²P]-ATP (Amersham Pharmacia Biotech) in a volume of 20 μl. Reactions were stopped by incubating the mixtures for 10 min at 70° C. Binding studies were carried out in 20 μl reaction volumes containing 20 mM Tris-HCl (pH 8.0), 8.7% (v/v) glycerol, 1 mM EDTA (pH 8.0), 5 mM MgCl₂, 100 mM KCL, 0.5 mM DTT, labelled DNA fragment (3000 cpm), and purified His6-CodY protein (50-400 ng). BSA (1 μg) and poly(dI-dC) (Amersham Pharmacia Biotech) were added to the reaction mixtures in order to reduce non-specific interactions. After incubation for 15 min at 30° C., samples were loaded onto a 4% polyacrylamide gel. Electrophoresis was performed in the Protean II Minigel System (Bio Rad Laboratories B. V., Veenendaal, The Netherlands) using a gradient (0.5× to 2×) of TAE buffer (Sambrook, Fritsch, and Maniatis, 1989) at 150 V for 1.5 h. Gels were dried and used for autoradiography at −80° C. using Kodak XAR-5 films and intensifying screens.
The upstream oppD region contains a small sequence that is inversely repeated with a spacing of 9 base pairs in between (FIG. 1). This region of dyad symmetry is located just upstream of the −35 promoter sequence. […]
A general note: In EMSA bound probe runs differently from free probe, usually more slowly.

The target of series [3] is T2, CodY (H6-CodY). Description: EMSA; multiple retarded bands, four with 10-100 ng; 5 mM MgCl2, 100 mM KCl, pH 8.0, 30 C; Ile (0.6 or 2.5 mM) stimulates, Val/Leu 0.6 mM reduce shift and 2.5 mM give. Particulars: tags: N-terminal His6 (pNH6CodY, nisin-induced in L. lactis NZ9000, Ni-NTA); chain copies: multimer, dimer or tetramer by cross-linking (stated); label: 32P 5'-end. How it is done:
as §1, with “Binding studies were carried out in 20 μl reaction volumes containing 20 mM Tris-HCl (pH 8.0), 8.7% (v/v) glycerol, 1 mM EDTA (pH 8.0), 5 mM MgCl₂, 100 mM KCL, 0.5 mM DTT, labelled DNA fragment (3000 cpm), and purified His6-CodY protein (50-400 ng).” left out
In order to examine whether L. lactis CodY directly interacts with upstream DNA sequences of its main target known so far, oppD, in vitro DNA binding studies were performed. For this purpose, histidine-tagged CodY was overexpressed using the nisin inducible gene expression system (Kuipers et al., 1998) and subsequently purified to apparent homogeneity. A radioactively labeled PCR fragment spanning the oppD upstream region (FIG. 1) was used as a probe. […]

The target of series [4] is T1, CodY (native, in cell). Description: cell_activity; lacZ reporter in L. lactis LL108. An excerpt: (§2) The fact that H6-CodY was unable to form a protein-DNA complex when a probe was used that lacks the upstream arm of this IR (probe 1 in FIG. 3) implies that this area might serve as an operator site for CodY on PoppD. To study this region in more detail, site directed mutations were introduced by PCR using combinations of oligonucleotide opp1 with oligonucleotides opp14 (WT), opp15(a), opp(15b) or opp2, respectively (FIG. 4A). The PCR products were ligated upstream of the promoterless lacZ reporter gene in pORI13 and introduced into L. lactis LL108. […] When the unchanged half-site was replaced by an unrelated sequence (an XbaI endonuclease site, present in opp2), repression was reduced approximately 30-fold (in cells growing exponentially in rich medium) and H6-CodY binding was completely abolished (as shown in FIG. 3).
(§3) FIG. 4D: Promoter activity of PoppD variants. L. lactis LL108 strains carrying the lacZ reporter plasmids were grown in GM17 medium. Cells were harvested in the exponential phase of growth and β-galactosidase activity was measured (solid bars). […] Open bars indicate a quantitative representation of the DNA binding assay shown in panel C. The relative binding affinity of H6-CodY for the PoppD variants was calculated by comparing the intensity of the shifted, H6-CodY bound complexes with the total radioactive signal in each lane in the presence of 100 ng protein.

Series [5] deals with T2, CodY (H6-CodY). Description: EMSA; affinity order WT > opp15(a) > opp15(b). Particulars: tags: N-terminal His6 (pNH6CodY, nisin-induced in L. lactis NZ9000, Ni-NTA); chain copies: multimer, dimer or tetramer by cross-linking (stated); label: 32P 5'-end.
From the text: as §2, §3

For series [6], the target named is T2, CodY (H6-CodY). Description: EMSA; no binding at any protein amount. As to conditions: tags: N-terminal His6 (pNH6CodY, nisin-induced in L. lactis NZ9000, Ni-NTA); chain copies: multimer, dimer or tetramer by cross-linking (stated); label: 32P 5'-end. The protocol:
BSA (1 μg) and poly(dI-dC) (Amersham Pharmacia Biotech) were added to the reaction mixtures in order to reduce non-specific interactions. After incubation for 15 min at 30° C., samples were loaded onto a 4% polyacrylamide gel. Electrophoresis was performed in the Protean II Minigel System (Bio Rad Laboratories B. V., Veenendaal, The Netherlands) using a gradient (0.5× to 2×) of TAE buffer (Sambrook, Fritsch, and Maniatis, 1989) at 150 V for 1.5 h. Gels were dried and used for autoradiography at −80° C. using Kodak XAR-5 films and intensifying screens.
The upstream oppD region contains a small sequence that is inversely repeated with a spacing of 9 base pairs in between (FIG. 1). This region of dyad symmetry is located just upstream of the −35 promoter sequence. To determine whether this region is important for the interaction with CodY, a stepwise deletion analysis of the oppD upstream region was performed. Radioactively labeled deletion fragments of the region, obtained by PCR, were incubated with H6-CodY. […]
Different parts of the oppD promoter region were amplified by PCR (panel A), radioactively labelled and incubated with no (lanes 1), 20 ng (lanes 2) or 200 ng (lanes 3) of His6-CodY protein, respectively (panel B). […] Cells were harvested in the exponential phase of growth and β-galactosidase activity was measured (solid bars). […]

Molecule “prtP/prtM intergenic region BGMN1-5 (330 bp)” had an activity with CodY (native, in cell) [1] of 6.

B1: oppD probe 2 (-111 to +75) (dsDNA)
DNA 1: ATGTTCAGAAAATTCATGAACAT
DNA 2: ATGTTCATGAATTTTCTGAACAT
With B1, the binding result with CodY (H6-CodY) [2] is recorded as “binds”.

B2: oppD promoter fragment opp162 (probe 3, opp1-opp3 PCR) (dsDNA)
DNA 1: ATGTTCAGAAAATTCATGAACAT
DNA 2: ATGTTCATGAATTTTCTGAACAT
For B2, the binding result with CodY (H6-CodY) [3] was “binds”.

B3: opp15(b) mutant oppD fragment (154 bp) (dsDNA)
DNA 1: AACTGCAGCGTACTGTGCCGAAAATTCATGAACATACC
DNA 2: GGTATGTTCATGAATTTTCGGCACAGTACGCTGCAGTT
Take B3: the activity with CodY (native, in cell) [4] is greater than 20 fold derepression vs WT.

B4: opp14 WT oppD fragment (154 bp) (dsDNA)
DNA 1: ATGTTCAGAAAATTCATGAACAT
DNA 2: ATGTTCATGAATTTTCTGAACAT
For B4, the binding result with CodY (H6-CodY) [5] is recorded as “binds”.

B5: oppD probe 1 / opp2 (160 bp, upstream arm removed) (dsDNA)
DNA 1: AACTGCAGGAAAATTCATGAACATACC
DNA 2: GGTATGTTCATGAATTTTCCTGCAGTT
Turning to B5, in the series with CodY (H6-CodY) [6], the binding result is given as “no binding”.

B6: opp15(a) mutant oppD fragment (154 bp) (dsDNA)
DNA 1: AACTGCAGCGTAATATTTAGAAAATTCATGAACATACC
DNA 2: GGTATGTTCATGAATTTTCTAAATATTACGCTGCAGTT
With B6, the activity with CodY (native, in cell) [4] is roughly 7 fold derepression vs WT.
